In patent US20030124119A1 (published 2003):

molecular target: T1, human PTHrP (1-34) (human); assay: ELISA, plate coated with 1 µg/ml human PTHrP (1-34)
T1 construct: Coated on ELISA plates (Peptide Research Institute) and used in RIA screening and the cAMP assay
Protocol: An ELISA plate for the determination of antigen-binding ability was prepared as follows. Each well of a 96-well ELISA plate was coated with 100 μl of a coating buffer supplemented with 1 μg/ml of human PTHrP (1-34) (Peptide Research Institute), and then blocked with 200 μl of a dilution buffer. Each well was added with each of the serial dilutions of the COS-7 cell culture supernatant in which each of the chimeric antibodies had been expressed, or added with each of the serial dilutions of each of the chimeric antibodies per se in a purified form. After the plate was incubated at room temperature and washed with PBS-Tween 20, each well of the plate was added with 100 μl of a solution of alkaline phosphatase-conjugated goat anti-human IgG antibodies (TAGO). After the plate was incubated at room temperature and washed with PBS-Tween 20, each well of the plate was added with 1 mg/ml of a substrate solution (“Sigma 104”, p-nitrophenylphosphoric acid, SIGMA). The solution was measured on its absorbance at 405 nm using Microplate Reader (Bio Rad).
An ELISA plate for determining antigen-binding ability was prepared as follows. Each well of a 96-well ELISA plate (Maxisorp, NUNC) was coated with 100 μl of a coating buffer containing 1 μg/ml of human PTHrP (1-34) and then blocked with 200 μl of a dilution buffer. Subsequently, each well was added with each of the serial dilutions of the COS-7 cell culture supernatant in which each of the hybrid antibodies and humanized antibodies was expressed, or added with each of the serial dilutions of each of the hybrid antibodies and humanized antibodies in a purified form. The plate was incubated at room temperature and washed with PBS-Tween 20. Subsequently, each well was added with 100 μl of alkaline phosphatase-conjugated goat anti-human IgG antibody (TAGO). The plate was incubated at room temperature and washed with PBS-Tween 20. Subsequently, each well was added with 1 mg/ml of a substrate solution (“Sigma 104”, p-nitrophenylphosphoric acid, SIGMA). The solution was measured on its absorbance at 405 nm using Microplate Reader (Bio Rad).

| Binder | binding result |
| --- | --- |
| humanized #23-57-137-1 antibody having L-chain version “s” (H-chain version “a”) (antibody, V domains shown, also called hMBC1Lsλ) VH: QVQLVESGGGVVQPGRSLRLSCAASGFTFSSYGMSWVRQAPGKGLEWVATISSGGSYTYYPDSVKGRFTISRDNSKNTLYLQMNSLRAEDTAVYYCARQTTMTYFAYWGQGTLVTVSS VL: QLVLTQSPSASASLGASVKLTCTLSSQHSTYTIEWYQQQPEKGPKYVMDLKQDGSHSTGDGIPDRFSGSSSGAERYLTISSLQSEDEADYICGVGDTIKEQFVYVFGGGTKLTVLG | binds |
| mouse FR1,2/human FR3,4 hybrid antibody (L-chain m/hMBC1Ldλ, H-chain hMBC1HcDNA) (antibody, V domains shown, Human Cγ1 and human λ C-regions) VH: QVQLVESGGGVVQPGRSLRLSCAASGFTFSSYGMSWVRQAPGKGLEWVATISSGGSYTYYPDSVKGRFTISRDNSKNTLYLQMNSLRAEDTAVYYCARQTTMTYFAYWGQGTLVTVSS VL: QLVLTQSSSASFSLGASAKLTCTLSSQHSTYTIEWYQQQPLKPPKYVMDLKQDGSHSTGDGIPDRFSGSSSGAERYLTISSLQSEDEADYICGVGDTIKEQFVYVFGGGTKLTVL | binds |
| antibody having both a humanized H-chain version “a” and a chimeric L-chain (antibody, V domains shown, Human Cγ1 H-chain C-region) VH: QVQLVESGGGVVQPGRSLRLSCAASGFTFSSYGMSWVRQAPGKGLEWVATISSGGSYTYYPDSVKGRFTISRDNSKNTLYLQMNSLRAEDTAVYYCARQTTMTYFAYWGQGTLVTVSS VL: QLVLTQSSSASFSLGASAKLTCTLSSQHSTYTIEWYQQQPLKPPKYVMDLKQDGSHSTGDGIPDRFSGSSSGADRYLSISNIQPEDEAMYICGVGDTIKEQFVYVFGGGTKVTVLG | binds |
| humanized #23-57-137-1 antibody having L-chain version “l” (H-chain version “a”) (antibody, V domains shown, Human Cγ1 and human λ C-regions; also called hMBC1Llλ) VH: QVQLVESGGGVVQPGRSLRLSCAASGFTFSSYGMSWVRQAPGKGLEWVATISSGGSYTYYPDSVKGRFTISRDNSKNTLYLQMNSLRAEDTAVYYCARQTTMTYFAYWGQGTLVTVSS VL: QLVLTQSPSASASLGASVKLTCTLSSQHSTYTIEWYQQQPEKGPKYVMDLKQDGSHSTGDGIPDRFSGSSSGAERYLTISSLQSEDEADYYCGVGDTIKEQFVYVFGGGTKLTVLG | binds |
| humanized #23-57-137-1 antibody having L-chain version “m” (H-chain version “a”) (antibody, V domains shown, Human Cγ1 and human λ C-regions; also called hMBC1Lmλ) VH: QVQLVESGGGVVQPGRSLRLSCAASGFTFSSYGMSWVRQAPGKGLEWVATISSGGSYTYYPDSVKGRFTISRDNSKNTLYLQMNSLRAEDTAVYYCARQTTMTYFAYWGQGTLVTVSS VL: QLVLTQSPSASASLGASVKLTCTLSSQHSTYTIEWYQQQPEKGPRYLMDLKQDGSHSTGDGIPDRFSGSSSGAERYLTISSLQSEDEADYYCGVGDTIKEQFVYVFGGGTKLTVLG | binds |
| humanized #23-57-137-1 antibody having L-chain version “q” (H-chain version “a”) (antibody, V domains shown, Human Cγ1 and human λ C-regions; also called hMBC1Lqλ) VH: QVQLVESGGGVVQPGRSLRLSCAASGFTFSSYGMSWVRQAPGKGLEWVATISSGGSYTYYPDSVKGRFTISRDNSKNTLYLQMNSLRAEDTAVYYCARQTTMTYFAYWGQGTLVTVSS VL: QLVLTQSPSASASLGASVKLTCTLSSQHSTYTIEWYQQQPEKGPKYLMDLKQDGSHSTGDGIPDRFSGSSSGAERYLTISSLQSEDEADYICGVGDTIKEQFVYVFGGGTKLTVLG | binds |
| mouse FR1,2/human FR3,4 hybrid antibody (L-chain m/hMBC1Laλ, H-chain hMBC1HcDNA) (antibody, V domains shown, Human Cγ1 and human λ C-regions) VH: QVQLVESGGGVVQPGRSLRLSCAASGFTFSSYGMSWVRQAPGKGLEWVATISSGGSYTYYPDSVKGRFTISRDNSKNTLYLQMNSLRAEDTAVYYCARQTTMTYFAYWGQGTLVTVSS VL: QLVLTQSSSASFSLGASAKLTCTLSSQHSTYTIEWYQQQPLKPPKYVMDLKQDGSHSTGDGIPDRFSGSSSGAERYLTISSLQSEDEADYYCGVGDTIKEQFVYVFGGGTKLTVL | binds |

The next lines start with the values.

| binding result | Binder |
| --- | --- |
| binds | humanized #23-57-137-1 antibody having L-chain version “j” (H-chain version “a”) (antibody, V domains shown, Human Cγ1 and human λ C-regions; also called hMBC1Ljλ) VH: QVQLVESGGGVVQPGRSLRLSCAASGFTFSSYGMSWVRQAPGKGLEWVATISSGGSYTYYPDSVKGRFTISRDNSKNTLYLQMNSLRAEDTAVYYCARQTTMTYFAYWGQGTLVTVSS VL: QLVLTQSPSASASLGASVKLTCTLSSQHSTYTIEWYQQQPEKGPKYLMDLKQDGSHSTGDGIPDRFSGSSSGAERYLTISSLQSEDEADYYCGVGDTIKEQFVYVFGGGTKLTVLG |
| binds | humanized #23-57-137-1 antibody having L-chain version “t” (H-chain version “a”) (antibody, V domains shown, Human Cγ1 and human λ C-regions; also called hMBC1Ltλ) VH: QVQLVESGGGVVQPGRSLRLSCAASGFTFSSYGMSWVRQAPGKGLEWVATISSGGSYTYYPDSVKGRFTISRDNSKNTLYLQMNSLRAEDTAVYYCARQTTMTYFAYWGQGTLVTVSS VL: QLVLTQSPSASASLGASVKLTCTLSSQHSTYTIEWYQQQPEKGPRYVMDLKQDGSHSTGDGIPDRFSGSSSGAERYLTISSLQSEDEADYICGVGDTIKEQFVYVFGGGTKLTVLG |
| binds | human FR1/mouse FR2,3,4 hybrid antibody (L-chain hmmMBC1L(λ), H-chain hMBC1HcDNA) (antibody, V domains shown, Human Cγ1 and human λ C-regions; also called FR1/FR2 hybrid antibody) VH: QVQLVESGGGVVQPGRSLRLSCAASGFTFSSYGMSWVRQAPGKGLEWVATISSGGSYTYYPDSVKGRFTISRDNSKNTLYLQMNSLRAEDTAVYYCARQTTMTYFAYWGQGTLVTVSS VL: QLVLTQSPSASASLGASVKLTCTLSSQHSTYTIEWYQQQPLKPPKYVMDLKQDGSHSTGDGIPDRFSGSSSGADRYLSISNIQPEDEAMYICGVGDTIKEQFVYVFGGGTKVTVL |
| binds | humanized #23-57-137-1 antibody having L-chain version “r” (H-chain version “a”) (antibody, V domains shown, also called hMBC1Lrλ) VH: QVQLVESGGGVVQPGRSLRLSCAASGFTFSSYGMSWVRQAPGKGLEWVATISSGGSYTYYPDSVKGRFTISRDNSKNTLYLQMNSLRAEDTAVYYCARQTTMTYFAYWGQGTLVTVSS VL: QLVLTQSPSASASLGASVKLTCTLSSQHSTYTIEWYQQQPEKGPRYLMDLKQDGSHSTGDGIPDRFSGSSSGAERYLTISSLQSEDEADYICGVGDTIKEQFVYVFGGGTKLTVLG |
| binds | humanized #23-57-137-1 antibody having L-chain version “o” (H-chain version “a”) (antibody, V domains shown, Human Cγ1 and human λ C-regions; also called hMBC1Loλ) VH: QVQLVESGGGVVQPGRSLRLSCAASGFTFSSYGMSWVRQAPGKGLEWVATISSGGSYTYYPDSVKGRFTISRDNSKNTLYLQMNSLRAEDTAVYYCARQTTMTYFAYWGQGTLVTVSS VL: QLVLTQSPSASASLGASVKLTCTLSSQHSTYTIEWYQQQPEKGPRYVMDLKQDGSHSTGDGIPDRFSGSSSGAERYLTISSLQSEDEADYYCGVGDTIKEQFVYVFGGGTKLTVLG |
| binds | chimeric #23-57-137-1 antibody with L-chain κ chain C-region (antibody, V domains shown, Mouse V-regions with human Cγ1 H-chain C-region and human κ C-region; expressed in COS-7 cells; also called chimeric antibody; MBC1HcDNA/pCOS1 and MBC1L(κ)/neo) VH: EVQLVESGGDLVKPGGSLKLSCAASGFTFSSYGMSWIRQTPDKRLEWVATISSGGSYTYYPDSVKGRFTISRDNAKNTLYLQMSSLKSEDTAMFYCARQTTMTYFAYWGQGTLVTVSA VL: QLVLTQSSSASFSLGASAKLTCTLSSQHSTYTIEWYQQQPLKPPKYVMDLKQDGSHSTGDGIPDRFSGSSSGADRYLSISNIQPEDEAMYICGVGDTIKEQFVYVFGGGTKVTVLG |
| binds | chimeric #23-57-137-1 antibody with L-chain λ chain C-region (antibody, V domains shown, expressed in COS-7 cells; also called chimeric antibody; MBC1HcDNA/pCOS1 and MBC1L(λ)/neo) VH: EVQLVESGGDLVKPGGSLKLSCAASGFTFSSYGMSWIRQTPDKRLEWVATISSGGSYTYYPDSVKGRFTISRDNAKNTLYLQMSSLKSEDTAMFYCARQTTMTYFAYWGQGTLVTVSA VL: QLVLTQSSSASFSLGASAKLTCTLSSQHSTYTIEWYQQQPLKPPKYVMDLKQDGSHSTGDGIPDRFSGSSSGADRYLSISNIQPEDEAMYICGVGDTIKEQFVYVFGGGTKVTVLG |

molecular target: T1, human PTHrP (1-34); assay: solid phase RIA of hybridoma culture supernatants
Protocol: The screening of hybridomas was performed by determining the presence of PTHrP-recognition antibodies in the culture supernatant of the wells in which cell growth had been observed in HAT medium, by solid phase RIA method. The hybridomas were collected from the wells in which the binding ability to the PTHrP-recognition antibodies had been confirmed. The hybridomas thus obtained was suspended into RPMI-1640 medium containing 15% FCS supplemented with OPI-supplement (Sigma), followed by unification of the hybridomas by limiting dilution method.

| binding result | Binder |
| --- | --- |
| binds | mouse monoclonal antibody #23-57-137-1 against human PTHrP (1-34) (antibody, V domains shown, Mouse antibody from the hybridoma (FERM BP-5631); mouse λ L-chain; tested as hybridoma culture supernatant) VH: EVQLVESGGDLVKPGGSLKLSCAASGFTFSSYGMSWIRQTPDKRLEWVATISSGGSYTYYPDSVKGRFTISRDNAKNTLYLQMSSLKSEDTAMFYCARQTTMTYFAYWGQGTLVTVSA VL: QLVLTQSSSASFSLGASAKLTCTLSSQHSTYTIEWYQQQPLKPPKYVMDLKQDGSHSTGDGIPDRFSGSSSGADRYLSISNIQPEDEAMYICGVGDTIKEQFVYVFGGGTKVTVLG |
